These are literature values, as cited in article PMC8495968, “Towards optimizing peptide-based inhibitors of protein–protein interactions: predictive saturation variation scanning (PreSaVS)” (RSC Chemical Biology, 2021).

The target of the data set is SIM (RanBP2) 2705-2717 (Homo sapiens) (UniProt P49792). The data set can be described thus: fluorescence anisotropy. (Fluorescence polarisation rises when a labelled molecule tumbles more slowly, as on binding a larger partner.)

pKd: −log10 of the molar value.

Sequence of SUMO-1 (P63165 2-97): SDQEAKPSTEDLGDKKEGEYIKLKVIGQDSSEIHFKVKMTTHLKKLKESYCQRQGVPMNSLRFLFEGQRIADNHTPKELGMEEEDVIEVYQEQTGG

For SUMO-1 (from UniProt P63165), the negative logarithm of the Kd (pKd) was 5.82.

By pKd is commonly meant the Kd on a negative log10 scale, so that one unit is a factor of ten.
